Data taken from patent publication US20170044251A1.

Assays:
Experiment in all cases: ELISA on coated peptide-OVA conjugate, FCA control egg yolk sample, dilution not given
[1] = molecular target: IL-10 Peptide #3 (SEQ ID NO: 7) conjugated to hen ovalbumin (avian animals, such as chickens, quail, and turkeys; hen) (UniProt P01012)
[2] = molecular target: IL-10 Peptide #1 (SEQ ID NO: 1) conjugated to hen ovalbumin (avian animals, such as chickens, quail, and turkeys; hen) (UniProt P01012)
[3] = molecular target: IL-10 Peptide #4 (SEQ ID NO: 10) conjugated to hen ovalbumin (avian animals, such as chickens, quail, and turkeys; hen) (UniProt P01012)

optical density [1]: 0.499 OD 450 nm | optical density [2]: 0.56 OD 450 nm | optical density [3]: 0.6 OD 450 nm
Substance: FCA control egg antibody
